Measurements from US20040067231A1 (published 2004).

Molecular target: T1, human PTHrP (1-34) (human)
T1 construct: Synthetic peptide (Peninsula; Peptide Research Institute); Coated on the ELISA plate at 1 µg/ml; used in solid phase RIA for the hybridoma screening; also called parathyroid hormone related peptide (1-34)
Test: ELISA on coated human PTHrP (1-34)
Description: An ELISA plate for determining antigen-binding ability was prepared as follows. Each well of a 96-well ELISA plate (Maxisorp, NUNC) was coated with 100 μl of a coating buffer containing 1 μg/ml of human PTHrP (1-34) and then blocked with 200 μl of a dilution buffer. Subsequently, each well was added with each of the serial dilutions of the COS-7 cell culture supernatant in which each of the hybrid antibodies and humanized antibodies was expressed, or added with each of the serial dilutions of each of the hybrid antibodies and humanized antibodies in a purified form. The plate was incubated at room temperature and washed with PBS-Tween 20. Subsequently, each well was added with 100 μl of alkaline phosphatase-conjugated goat anti-human IgG antibody (TAGO). The plate was incubated at room temperature and washed with PBS-Tween 20. Subsequently, each well was added with 1 mg/ml of a substrate solution (“Sigma 104”, p-nitrophenylphosphoric acid, SIGMA). The solution was measured on its absorbance at 405 nm using Microplate Reader (Bio Rad).

binding result | Binder
binds | antibody having both a humanized H-chain version “a” and a chimeric L-chain (antibody, V domains shown, H-chain C-region is human Cγ1) VH: QVQLVESGGGVVQPGRSLRLSCAASGFTFSSYGMSWVRQAPGKGLEWVATISSGGSYTYYPDSVKGRFTISRDNSKNTLYLQMNSLRAEDTAVYYCARQTTMTYFAYWGQGTLVTVSS VL: QLVLTQSSSASFSLGASAKLTCTLSSQHSTYTIEWYQQQPLKPPKYVMDLKQDGSHSTGDGIPDRFSGSSSGADRYLSISNIQPEDEAMYICGVGDTIKEQFVYVFGGGTKVTVLG
binds | mouse FR1,2/human FR3,4 hybrid antibody with L-chain m/hMBC1Ldλ (antibody, V domains shown, H-chain from hMBC1HcDNA/pCOS1 (humanized version a, human Cγ1); L-chain C-region human λ; Expressed in COS-7 cells) VH: QVQLVESGGGVVQPGRSLRLSCAASGFTFSSYGMSWVRQAPGKGLEWVATISSGGSYTYYPDSVKGRFTISRDNSKNTLYLQMNSLRAEDTAVYYCARQTTMTYFAYWGQGTLVTVSS VL: QLVLTQSSSASFSLGASAKLTCTLSSQHSTYTIEWYQQQPLKPPKYVMDLKQDGSHSTGDGIPDRFSGSSSGAERYLTISSLQSEDEADYICGVGDTIKEQFVYVFGGGTKLTVL
binds | humanized #23-57-137-1 antibody having L-chain version “l” (antibody, V domains shown, Humanized H-chain version a with human Cγ1; L-chain with human λ C-region; also called hMBC1HcDNA/pCOS1 and hMBC1Llλ/pCOS1) VH: QVQLVESGGGVVQPGRSLRLSCAASGFTFSSYGMSWVRQAPGKGLEWVATISSGGSYTYYPDSVKGRFTISRDNSKNTLYLQMNSLRAEDTAVYYCARQTTMTYFAYWGQGTLVTVSS VL: QLVLTQSPSASASLGASVKLTCTLSSQHSTYTIEWYQQQPEKGPKYVMDLKQDGSHSTGDGIPDRFSGSSSGAERYLTISSLQSEDEADYYCGVGDTIKEQFVYVFGGGTKLTVLG
binds | human FR1/mouse FR2,3,4 hybrid antibody with L-chain hmmMBC1L(λ) (antibody, V domains shown, H-chain from hMBC1HcDNA/pCOS1 (humanized version a, human Cγ1); L-chain C-region human λ; Expressed in COS-7 cells; also called FR1/FR2 hybrid antibody) VH: QVQLVESGGGVVQPGRSLRLSCAASGFTFSSYGMSWVRQAPGKGLEWVATISSGGSYTYYPDSVKGRFTISRDNSKNTLYLQMNSLRAEDTAVYYCARQTTMTYFAYWGQGTLVTVSS VL: QLVLTQSPSASASLGASVKLTCTLSSQHSTYTIEWYQQQPLKPPKYVMDLKQDGSHSTGDGIPDRFSGSSSGADRYLSISNIQPEDEAMYICGVGDTIKEQFVYVFGGGTKVTVL
binds | humanized #23-57-137-1 antibody having L-chain version “m” (antibody, V domains shown, Humanized H-chain version a with human Cγ1; L-chain with human λ C-region; also called hMBC1HcDNA/pCOS1 and hMBC1Lmλ/pCOS1) VH: QVQLVESGGGVVQPGRSLRLSCAASGFTFSSYGMSWVRQAPGKGLEWVATISSGGSYTYYPDSVKGRFTISRDNSKNTLYLQMNSLRAEDTAVYYCARQTTMTYFAYWGQGTLVTVSS VL: QLVLTQSPSASASLGASVKLTCTLSSQHSTYTIEWYQQQPEKGPRYLMDLKQDGSHSTGDGIPDRFSGSSSGAERYLTISSLQSEDEADYYCGVGDTIKEQFVYVFGGGTKLTVLG
binds | humanized #23-57-137-1 antibody having L-chain version “j” (antibody, V domains shown, Humanized H-chain version a with human Cγ1; L-chain with human λ C-region (Cλ/pUC19); also called hMBC1HcDNA/pCOS1 and hMBC1Ljλ/pCOS1) VH: QVQLVESGGGVVQPGRSLRLSCAASGFTFSSYGMSWVRQAPGKGLEWVATISSGGSYTYYPDSVKGRFTISRDNSKNTLYLQMNSLRAEDTAVYYCARQTTMTYFAYWGQGTLVTVSS VL: QLVLTQSPSASASLGASVKLTCTLSSQHSTYTIEWYQQQPEKGPKYLMDLKQDGSHSTGDGIPDRFSGSSSGAERYLTISSLQSEDEADYYCGVGDTIKEQFVYVFGGGTKLTVLG
binds | mouse FR1,2/human FR3,4 hybrid antibody with L-chain m/hMBC1Laλ (antibody, V domains shown, H-chain from hMBC1HcDNA/pCOS1 (humanized version a, human Cγ1); L-chain C-region human λ; Expressed in COS-7 cells) VH: QVQLVESGGGVVQPGRSLRLSCAASGFTFSSYGMSWVRQAPGKGLEWVATISSGGSYTYYPDSVKGRFTISRDNSKNTLYLQMNSLRAEDTAVYYCARQTTMTYFAYWGQGTLVTVSS VL: QLVLTQSSSASFSLGASAKLTCTLSSQHSTYTIEWYQQQPLKPPKYVMDLKQDGSHSTGDGIPDRFSGSSSGAERYLTISSLQSEDEADYYCGVGDTIKEQFVYVFGGGTKLTVL
binds | humanized #23-57-137-1 antibody having L-chain version “t” (antibody, V domains shown, Humanized H-chain version a with human Cγ1; L-chain with human λ C-region; also called hMBC1HcDNA/pCOS1 and hMBC1Ltλ/pCOS1) VH: QVQLVESGGGVVQPGRSLRLSCAASGFTFSSYGMSWVRQAPGKGLEWVATISSGGSYTYYPDSVKGRFTISRDNSKNTLYLQMNSLRAEDTAVYYCARQTTMTYFAYWGQGTLVTVSS VL: QLVLTQSPSASASLGASVKLTCTLSSQHSTYTIEWYQQQPEKGPRYVMDLKQDGSHSTGDGIPDRFSGSSSGAERYLTISSLQSEDEADYICGVGDTIKEQFVYVFGGGTKLTVLG
binds | humanized #23-57-137-1 antibody having L-chain version “o” (antibody, V domains shown, Humanized H-chain version a with human Cγ1; L-chain with human λ C-region; also called hMBC1HcDNA/pCOS1 and hMBC1Loλ/pCOS1) VH: QVQLVESGGGVVQPGRSLRLSCAASGFTFSSYGMSWVRQAPGKGLEWVATISSGGSYTYYPDSVKGRFTISRDNSKNTLYLQMNSLRAEDTAVYYCARQTTMTYFAYWGQGTLVTVSS VL: QLVLTQSPSASASLGASVKLTCTLSSQHSTYTIEWYQQQPEKGPRYVMDLKQDGSHSTGDGIPDRFSGSSSGAERYLTISSLQSEDEADYYCGVGDTIKEQFVYVFGGGTKLTVLG
binds | humanized #23-57-137-1 antibody having L-chain version “q” (antibody, V domains shown, Humanized H-chain version a with human Cγ1; L-chain with human λ C-region; also called humanized antibody L-chain version “q”; hMBC1HcDNA and hMBC1Lqλ) VH: QVQLVESGGGVVQPGRSLRLSCAASGFTFSSYGMSWVRQAPGKGLEWVATISSGGSYTYYPDSVKGRFTISRDNSKNTLYLQMNSLRAEDTAVYYCARQTTMTYFAYWGQGTLVTVSS VL: QLVLTQSPSASASLGASVKLTCTLSSQHSTYTIEWYQQQPEKGPKYLMDLKQDGSHSTGDGIPDRFSGSSSGAERYLTISSLQSEDEADYICGVGDTIKEQFVYVFGGGTKLTVLG
